# PMC4686830, “Ankyrin-mediated self-protection during cell invasion by the bacterial predator Bdellovibrio bacteriovorus” (Nature Communications, 2015)
# T1: Bd3459:Bd3460 complex (Bd3459^M/Bd3460) (Bdellovibrio bacteriovorus, UniProt Q6MHT0, K38M)
# T1 construct: 1:1 heterodimer; with Ankyrin repeat protein (self-protection protein)
# T1 sequence (Q6MHT0 38-446 K38M): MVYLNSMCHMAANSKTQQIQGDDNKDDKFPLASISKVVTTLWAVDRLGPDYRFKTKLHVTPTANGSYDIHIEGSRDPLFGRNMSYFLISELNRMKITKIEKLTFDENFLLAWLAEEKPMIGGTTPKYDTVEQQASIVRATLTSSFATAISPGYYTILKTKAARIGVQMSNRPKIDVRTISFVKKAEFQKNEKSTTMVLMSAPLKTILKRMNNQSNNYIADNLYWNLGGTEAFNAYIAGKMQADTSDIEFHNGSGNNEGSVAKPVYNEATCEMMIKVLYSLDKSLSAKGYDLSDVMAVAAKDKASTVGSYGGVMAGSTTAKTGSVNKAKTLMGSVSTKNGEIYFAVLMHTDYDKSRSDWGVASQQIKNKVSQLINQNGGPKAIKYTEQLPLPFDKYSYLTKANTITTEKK
# T1 sequence (Q6MHS9 25-220 A25M partner limits assumed): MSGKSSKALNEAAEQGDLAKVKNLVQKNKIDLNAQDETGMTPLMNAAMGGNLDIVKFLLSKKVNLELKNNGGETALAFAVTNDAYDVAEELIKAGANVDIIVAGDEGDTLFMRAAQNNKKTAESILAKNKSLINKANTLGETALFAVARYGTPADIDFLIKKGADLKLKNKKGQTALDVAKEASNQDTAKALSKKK
# T2: Bd3459 DD-endopeptidase, new construct starting post signal peptide with K38M, C-terminal H8 tag (Bdellovibrio bacteriovorus HD100, UniProt Q6MHT0 38-446, K38M)
# T2 construct: Bd3459 of Bdellovibrio bacteriovorus HD100, predicted secreted form, starting post signal peptide with K38 mutated to become the new N-terminal methionine; The active site serine S70 is unchanged: the crystals of this complex could be acylated with penicillin G. PDB 5CEB holds the same limits with S70A; also called tagged Bd3459; Bd3459^M; source: E. coli T7 express, co-expressed from pCDF-Duet1 …
# T2 sequence (looked up): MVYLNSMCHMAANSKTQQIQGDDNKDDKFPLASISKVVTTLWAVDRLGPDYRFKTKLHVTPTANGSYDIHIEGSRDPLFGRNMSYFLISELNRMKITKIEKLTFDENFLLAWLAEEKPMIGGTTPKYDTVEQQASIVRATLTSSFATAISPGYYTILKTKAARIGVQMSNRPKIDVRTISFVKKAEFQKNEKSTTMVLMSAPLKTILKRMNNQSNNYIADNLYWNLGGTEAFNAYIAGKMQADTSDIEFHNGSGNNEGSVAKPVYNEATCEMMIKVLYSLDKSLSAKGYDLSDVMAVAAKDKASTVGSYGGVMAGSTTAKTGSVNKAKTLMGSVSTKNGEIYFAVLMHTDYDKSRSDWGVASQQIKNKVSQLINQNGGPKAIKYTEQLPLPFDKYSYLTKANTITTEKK
# T3: Bd0816 DD-endopeptidase S58A (K26M start, C-terminal H8 tag) (Bdellovibrio bacteriovorus HD100, UniProt Q6MPN2 26-436, K26M | S58A)
# T3 construct: Bd0816 of Bdellovibrio bacteriovorus HD100, starting at K26M; active site serine mutated to alanine (S58A); Expression of wild-type Bd0816 was toxic, so the S58A mutant was used for the complex; It is a trimer in the crystal, while a 1:1 heterodimer with Bd3460 is said to dominate in solution; also called Bd0816 S58A; tagged Bd0816; source: E. coli T7 express, co-expressed from pCDF-Duet1 with …
# T3 sequence (looked up): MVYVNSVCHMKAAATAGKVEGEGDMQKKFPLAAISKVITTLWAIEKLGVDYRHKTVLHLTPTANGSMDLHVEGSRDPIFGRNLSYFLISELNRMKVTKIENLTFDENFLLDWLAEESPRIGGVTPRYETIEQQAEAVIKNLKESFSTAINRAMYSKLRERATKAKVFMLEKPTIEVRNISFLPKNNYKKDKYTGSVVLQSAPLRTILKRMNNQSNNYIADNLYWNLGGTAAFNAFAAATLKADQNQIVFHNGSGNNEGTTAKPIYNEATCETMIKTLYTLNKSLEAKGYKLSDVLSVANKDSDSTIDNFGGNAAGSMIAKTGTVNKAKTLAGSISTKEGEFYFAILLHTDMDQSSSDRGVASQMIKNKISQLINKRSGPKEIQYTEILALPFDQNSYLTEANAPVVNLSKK
# Tests used:
# [1] = target: T1, Bd3459:Bd3460 complex (Bd3459^M/Bd3460); assay: X-ray crystallography, […] A, crystal soak; format: binding; details: covalent; acylation of active-site serine (Ser70) of Bd3459; pre-grown complex crystals soaked with 2 mM penicillin G for 1 h
# [2] = target: Bd3459 DD-endopeptidase, purified, active site serine acylated by penicillin G (Bdellovibrio bacteriovorus HD100) (UniProt Q6MHT0); assay: other fluorescence titration; as a2, but Bd3459 pre-incubated with 0.75 mM penicillin G before titration with Bd3460
# [3] = target: T2, Bd3459 DD-endopeptidase, new construct …; assay: co-purification (His-tag affinity); H8-tagged endopeptidase and untagged Bd3460 co-expressed in E. coli and purified together on a His column; buffer C (20 mM imidazole pH 8.0, 0.4 M NaCl, 0.05% w/v Tween20); details: partners not purified
# [4] = target: T3, Bd0816 DD-endopeptidase S58A (K26M …); assay: as above; details: partners not purified
# [5] = target: Bd3459 DD-endopeptidase, purified (original construct, A37M start) (Bdellovibrio bacteriovorus HD100) (UniProt Q6MHT0); assay: other fluorescence titration; intrinsic tryptophan fluorescence, excitation 280 nm, change of emission at 340 nm; 10 uM Bd3459 in the cuvette, Bd3460 titrated in; 25 °C; buffer B with Tris (10 mM pH 7.2, 0.25 M NaCl); one site-specific binding isotherm
fold reduction in affinity against unacylated Bd3459 [2],stoichiometry N [3],stoichiometry N [4],Kd [5],Molecule,"X-ray crystallography, 2.02 A, crystal soak [1]"
,,,,CC1(C)S[C@@H]2[C@H](NC(=O)Cc3ccccc3)C(=O)N2[C@H]1C(=O)O [penicillin G],acylating pre-grown Bd3459:Bd3460 complex crystals with penicillin G
2 fold,1,1,26.8 µM,"Bd3460, exported domain (amino acids 26-220), untagged, co-expressed with an endopeptidase (natural protein, Bdellovibrio bacteriovorus HD100, UniProt Q6MHS9 25-220, looked up, The only change is the start methionine in place of A25; also called untagged Bd3460; source: E. coli T7 express, co-expressed from pCDF-Duet1 with the H8-tagged endopeptidase, co-purified (His column)) MSGKSSKALNEAAEQGDLAKVKNLVQKNKIDLNAQDETGMTPLMNAAMGGNLDIVKFLLSKKVNLELKNNGGETALAFAVTNDAYDVAEELIKAGANVDIIVAGDEGDTLFMRAAQNNKKTAESILAKNKSLINKANTLGETALFAVARYGTPADIDFLIKKGADLKLKNKKGQTALDVAKEASNQDTAKALSKKK",
